Laboratory results: the supplement of paper PMC10567573

B1: PHTF1 (parent)
chain: RVKLISNKGTETDNDPSCVHPIIK
B2: CHCHD6 (parent)
chain: MYKLSSEQFHEAASKMESTIKPRR

Variants of: B1
Assay: protein stability index of a GFP-peptide fusion (GPS, HEK-293T) (PSI 1-6); higher = more stable
Details: c terminus: a fixed tail appended
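Note: lentivirally expressed fusions sorted by FACS into six bins by GFP to DsRed ratio, PSI derived from sequencing read proportions per bin multiplied by bin number.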

Protein stability index of substitutions, site by site:
P21: Y 3.4
K24: C 3.36 | T 3.68 | P 4.27 | M 3 | G 3.76 | A 3.54 | S 3.82 | F 2.33 | N 4.26 | H 4.11 | V 3.17 | R 4.09 | Q 3.74 | I 2.49 | W 2.73 | L 2.67 | Y 2.79 | D 4.22 | E 4.13
I23: P 4.69 | K 4.74 | S 4.37 | L 4.47 | D 4.82 | V 3.85 | T 4.57 | Q 4.64 | H 4.74 | N 4.59 | W 3.52 | F 4.02 | G 4.49 | A 4.59 | C 4.67 | R 4.6 | Y 4.16 | E 4.82 | M 4.19
I22: E 4.38 | M 3.51 | V 4.4 | T 4.51 | C 3.84 | Q 4.22 | S 4.6 | G 4.48 | W 3.68 | H 4.78 | D 4.63 | L 4.22 | A 4.42 | K 4.32 | F 3.88 | N 4.5 | Y 4.23 | P 4.67 | R 4.53

Variants of: B2
Assay: as above
Details: c terminus: a fixed tail appended

Protein stability index of substitutions, site by site:
S5: A 4.02 | V 3.43 | Q 3.78 | G 4.68 | E 4.24 | M 3.87 | K 3.56 | F 2.82 | I 2.65 | R 3.94 | Y 2.72 | T 3.64 | D 4.06 | P 3.17 | C 3.14 | N 4.06 | L 3.02 | H 4.14 | W 3.17
K15: G 3.82 | F 3.91 | D 4.18 | A 3.49 | E 4.42 | L 3.73 | M 3.84 | H 3.75 | C 3.54 | N 4.42 | I 3.67
Q8: V 3.49 | F 2.65 | C 2.96 | S 3.74 | E 3.75 | W 2.5 | D 3.73 | K 3.84 | N 3.86 | A 4.25 | P 4.39 | M 3.39 | I 2.84 | Y 2.94 | R 3.86 | H 3.22 | T 4.16 | G 3.35 | L 3.22
H10: C 3.93 | G 4.28 | F 3.44 | W 2.54 | E 4.24 | N 3.41 | I 3.08 | A 3.66 | Q 3.98 | S 4.15 | T 3.3 | V 3.78 | M 3.37 | Y 3.52 | P 4.08 | K 4 | R 3.82 | D 4.15 | L 3.69
M1: S 4 | R 4.33 | G 4.53 | D 5.02 | H 4.18 | P 4.36 | T 4.12 | E 4.44 | L 3.06 | W 3.36 | Q 4.24 | N 4.37 | I 3.41 | Y 3.56 | C 3.59 | V 4.03 | A 3.87 | F 3.7 | K 4.13
S14: W 3.18 | I 2.86 | M 3.47 | F 3.05 | H 3.9 | P 3.82 | D 3.61 | Q 4.24 | R 3.48 | N 3.78 | G 3.87 | L 3.1 | E 4.12 | Y 2.83 | C 3.29 | V 4.11 | A 3.56 | K 3.68 | T 3.81
K3: P 4.17 | V 2.7 | M 3.7 | A 4.56 | N 3.68 | L 2.66 | T 3.73 | Q 4.17 | S 2.47 | E 3.66 | Y 3.08 | H 3.98 | I 2.59 | W 2.94 | F 2.55 | C 3.63 | G 4.46 | R 3.6 | D 3.84
A12: G 3.69 | E 4.56 | S 3.97 | T 3.75 | R 3.55 | C 3.31 | Y 3.39 | D 4.17 | H 4.12 | K 3.59 | M 3.14 | I 2.88 | V 3.58 | P 4.23 | Q 4.04 | F 3.27 | L 2.92 | W 2.55 | N 2.9
A13: F 2.88 | N 4.24 | H 3.9 | S 3.81 | L 3.09 | E 4.33 | Y 3.36 | Q 3.61 | D 4.25 | V 4.02 | K 3.86 | W 2.95 | M 2.59 | T 4.02 | G 3.83 | I 2.93 | R 3.66 | P 3.81 | C 3.33
L4: N 4.23 | W 3.77 | E 4.34 | Y 3.53 | M 4.27 | D 4.53 | T 3.81 | R 4.24 | K 4.49 | S 4.06 | A 4.69 | H 3.58 | F 3.5 | P 4.61 | Q 4.32 | I 3.18 | C 3.29 | V 3.74
Y2: S 4.5 | M 4.45 | G 4.48 | A 4.55 | L 4.34 | V 4.05 | E 4.42 | R 4.7 | Q 4.25 | F 4.01 | N 4.51 | T 3.29 | D 4.83 | H 4.44 | I 3.98 | P 4.77 | W 2.58 | C 3.53 | K 4.7
E7: G 4.39 | H 3.44 | A 3.6 | Q 3.58 | N 3.58 | D 3.7 | F 3.1 | Y 2.82 | K 3.71 | C 3.29 | I 3.1 | W 2.56 | P 3.64 | T 3.2 | S 3.79 | L 3.71 | V 3.44 | M 2.97 | R 2.96
F9: K 4.58 | M 4.28 | D 4.82 | G 4.21 | A 4.03 | P 4.68 | Y 3.98 | R 4.25 | L 3.36 | H 4.32 | V 3.36 | S 4.81 | C 3.83 | W 3.23 | I 4.06 | Q 4.12 | N 4.64 | T 4.2 | E 4.43
S6: T 4.18 | P 3.78 | V 3.1 | A 3.64 | E 3.53 | H 3.53 | D 4.03 | L 3.03 | F 3.46 | Q 4.25 | C 3.52 | M 3.74 | Y 3.39 | G 4.26 | I 2.64 | W 2.62 | R 3.39 | N 4.23 | K 3.93
E11: I 3.34 | L 3.26 | G 3.8 | S 3.37 | M 3.28 | K 3.69 | V 3.4 | Y 3.52 | N 3.4 | R 3.35 | A 2.99 | D 3.65 | T 3.75 | P 3.6 | H 3.22 | Q 3.69 | C 3.06 | F 2.65 | W 2.77
